Results reported in the domain aggregation screens of Martell et al. (2025).

Assay: soluble fraction after stress (log2 fold change); higher = more stays soluble; pooled small domains, quantitative proteomics
Conditions: stress: 50 degC
Outline: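 The stress applied to every library was 50°C. These custom libraries of small protein domains were pooled and measured at high throughput with quantitative proteomics as the read-out. Aggregation propensity is expressed as the base-two logarithm of the fold change in how much of each protein remains soluble. The higher the value, the more of that protein stays in solution.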

Sequence	soluble fraction (log2)
HMNETNKMPNLVNQTDSSAIAQLNAMELGLKITTKEESSETVLAGYVIRTEPAADTELTKNQAVTVYVS	0.00616
HMEAGTEYVERAADYIRSHFQEDLTVSKLALYVGLNRSYLTTVFQNTLHVSPQQFLMRFRMERAAQLLD	0.0719
HMEQYFEDEELNDKFLEFLAMRKRVRKPVQTDRGMKMLLTSLHKLSGGDVGLMKQIIDQSLDNEWKKFVA	-0.673
HMAMSDFDALSNRISTLSQGRASAVRMKDGIVSLVLDIGGLSAEERKAMTAAIEGEGRGYPSVTQVRILET	0.0462
HMDTDVFLMDLRGESRDYAEEVLINNNLEVKVIILPFSKRHYPGKVVEMRPSPFTKVKKGRIITLSVAGN	-3.71
HMGVPTEQEIGKRILAWRKLRGMTLQQLADKAGVGLTTIHNLETGLWYAKMPTYLYIAEALGVSLDALIYG	-1.42
HMDSDMGQQLKTLLTVGTFMSSKELKAIAQQLGLKKPTDLKEWVELESGTQRIEGKPTKGYWIKMNDINN	0.159
HMAAGVESLTEKEFAVASLVGGGASNREIAERLAMSERTVKSHLSSIFRKMDVRDRVQLALAMND	0.00815
HMPTMEQTYIGRTMIAEEDMGKNSKIKVSGIYWTAYNKGRVIKKGEEYKITGIEGNKLIVSSK	-0.0359
HMGAYITYEVKPGDTLWDIANKFPGVSADNIKTWNKVDELIKAGERLKINTQTITDYSPDKYPS	-0.221
HMPAVTEQTRANLRTAFWSLYREKPTSKITVREITDRAGYNRATFYLYYRDVYDLFEQIEQEIL	-2.36
HMLSSAAAIDRILAGGTAAMNHRQFDAALTSFNTVIEMRPDFAEGWNKRATLYYLIGEYERSIADVERTLA	0.1
HMKEIGGGPASKFIYYLIKTKHPIEQGDLIGITHLPRRTVQSAIEDLKNQGFIIERNSLDDSRRKVYYPVK	0.000762
HMQMPDLTGKPRAEAVTTLAALGFTDVKFLDASAGDEPLDYVADQVVRTSPEAGAALASGQQITIYLAT	0.101
HMRGFGEVGQLPSGRYRARYTGPDGGRHSAPITFVARIDAEGWLVDQERMISRGEWEPPARQ	-0.224
HMKQVNVVSVIGQSEANAKTTLTGLGLKVNVAYEEDTSKADGIVLKQSLEGGKTVNEGTTITITVNKIA	-0.0302
HMEKGWYKLGQDSYYVDDDGKIHKGWLELDGKKYYFDQEGKMVTGTVNIDGKDYTFNEKGELYVS	0.183
HMELLTYREMDVLNLLDQRLTNKEIAHALGISTETVRQHTVNLFRKLNVDNRRQAIVVARSLGYIGTPT	-1.2
HMDSTLTNEIYNELYRAITHQELKPGQNLTLTMLKKQFNVSHTPIREALTRLSADGLVTYHPNKGMKVT	-0.274
HMITPAARLRALKIRLSVDEVAQIVQRLVNGETVYQIGKPDTGGHAKATVGKINALRLAGQLHFL	-1.28
HMEVFGDTKEEQMIIDILKLGITDLEHLQAKSMLEPAIFSQTLTMLEISGKIRPLGAGHWTL	-1.04
HMGRRERKKLQSRRAIIEAAVTEFKEKGFREASVADIMTRADLGLGTFYNYFQSKEDILMSLLS	-0.0676
HMYSKVSFTVSVGMTSERVSASLKALGIIDDSAKFNRYLVSNGYSTRIKVGTVELQAGQSYAEIASKLV	-0.826
HMAWIAVATKEDYSEYEWKELSPTTDWSTQTFDLGDLAGKTIYAVKMFFDHDTDVKDYKFNLGQLSITSN	-0.266
HMNKMHKLPSVSEILNKVRLQKIHNESFIKFKIKEEIDRYRKLAKKDQLFLSRDEITYEIIEKLLNFSMPS	-2.57

Sequence	soluble fraction (log2)
HMPDLSMLDEVLDEYRSQAGSLVTVLQKAQDLYGYLPLTILRHIAEEMNIKPAQVYGVATFYTQFRL	-0.0547
HMTQRRLQSELDSIPGVGAGTRTKLLRTLGSVDAVLRASEAELLAAGANRRQVASIQAHAAAVER	-0.0642
HMLMNADVLVKYQEDHWIVISEKASQASDTFDKKEQAVERAKEIAKNKNSSVKVYKQDGTLQDTFDYS	0.122
HMFTEEEMTKLRHELILAGIRLSRELGLQRMSVEKITSAVGIAKGSFYIFFDSKEDFILEIADHANRE	-1.06
HMVLGSSVAMGQKIGDSDLTWVEVPLSSAFDRFLSEPEWRGSSDLVAARLLEAGVFLTEDDVVE	0.0949
HMTNADRYIGQEATVTEKISNELSTGAVRIGGLVWTARTVDNSEAEEGERVTVEAIEGAKLLVKRR	-0.0108
HMAESNQIQLSDVREALNMIGPASWLDLVHYLDTGKGRGGQRLRRMLKSLSRSGEIELVARGTYQITDN	-0.422
HMSGPAEDLLAIEGMDKELAYELAARGIRTRDELADQSLDELEAVPGLDPVRAGQLIMAARAHLFENAGQ	-0.124
HMQVFDSNEIDEVVKKVIENNPQAVADFKKGKSNALQFLAGQVMRETKGRFNPNVVQERIRLLLT	0.458
HMASENISYSQFINQVKNSMVESVSIEADGKTISGKYKSGSSFVTYGLNDPKLVDDLLSNNVEIL	0.159
HMPHITDAEWEVMRVVWANHHVTSKEVISILEDKMNWKATTIKTLLGRLVEKGALSTEQDGKKFIYTAR	-1.5
HMSDFKDIILKLRNEQGFTQEKLADVLGTSKSTVGMWEMGVRFPSKELYEAIADYFNVDIDYLYGRTDIR	-0.966
HMDITGIGIKKRIKAIIDSEDKKNPLSDTQIVEILKNEGLEISRRTVAKYRSDLQIPSSSKRKK	0.403
HMDDADPYEILGVERDAEDAEIKRAYHDLIRENHPDRLMAEGLPQEMIDVANEKVAFINDAYDRIEKLRGM	-0.241
HMLDLVSIGKRIKAERQKNGLTQEALAERIEVSAHYVYELERGLKAMSVPILLRMSEVLHTSTDYLLF	-2.9
HMTILTSSQRKALISKMIRQGGVESQSHLVKLLAREGVKVTQATASRDLEDLGATRVRDANGEFQYVIP	-0.271
HMHPEQTLEKIVDISAELFAKKGYEQTSIQDILDATGLSKGGLYHHFKSKEEILEAVMQKRVQY	0.0883
HMGLSNYEFNSISQTVKEKLEQGPLTLKALVDETAHLFAEDKVVSVVQWLIDQRDLAYDDHGLLQWKG	-0.418
HMQPDFLDAKASLALLGVRPQTLYAYVSRGAIRSVPQPGTKAHLYSRSDIERVMARAAARAG	-1.12
HMRRATLERLANNTAEKAIRYKRSLALEPMNPQERRIIHAALQEVEGVSTHSVGTEPNRKVIVVPDGV	-0.0677
HMQDLAKRWVEEFGDLLYKYTLPRVSDSGIAKDLVQETFLAAWRNIDNFKGEASEKNWLFTILKNKIIDH	-0.213
HMIKEVGYEKFMQMTEEEDIGRVEIDQEENQITFTDKDETAIYKTGMVDDPDLTERLYDAGAEFS	0.0297
HMLSLSDIINDVMERLTREKNLTFDELLGEKRERRRIVYTFLALLELIRLKMIKAYQTAAFGVIRIFPR	-0.898
HMEVSYSLPRFHKGKNPYVDFYQVDPRTLRMRRKKFLLRGVRDAVLLEQRAADLVALLTERLHSGWNAWDD	-2.11
HMNPFLELTEREMDVLRLIAIGRNNQEIASELVISEKTVKTHITNIFSKLHFKDRTQAAAYAWQSGIVR	-0.74

Sequence	soluble fraction (log2)
HMDVKPWERQEGESAKAFEAFTIYAGLGADRSLRAVAQQLGKSKTLMDRWSSTYSWVARAAEYDADLQRK	-0.575
HMSKQEFVDRLRVSLSGKISPASVEDNARYYEDYINTHIRLGEPEEDVLEGLGDPRLIARSIVAAESV	0.0896
HMVVKLTQEQDRFIKTFNDKSLAFYYISSWGWGSFLRNGIGGVYEGDKTPFTLDEKEKMLNAIINGYEVI	-1.82
HMDQEDAYMQVRQVFDTLLVSELSKRIFAWRFFEGKSFAEWPGAESQKFLYDTFNRILLIISAKIRRKNA	-0.0448
HMTRVDKLQTWLSLPREQRDWDEGALMLLQLTGNKIMYRNLSVNPEGKANFIEGKLQQYLEFRLA	-1.26
HMDTIVHFLSDGRRITVRIKRNARKNIILRPMAADAVSATIPPWLGRRQLSAWLSEREDLLLSVLSRAA	-2.14
HMAVPFTIDVSQNGRYFIEEDNQVVEVSIGFLEDRFLRIIKSNPDIEVIIRGDAKASYESIAELLAVLQ	-1.06
HMSSDEDELESIIKRVFADNPIELERLQNGEDKLIKFFMGLVMRQTKGKYPPKIIIDLLNKS	-0.411
HMGYVQLTAREKEVLQGLVDGASYKMIAAKLDIRFGTVHTHVKNIYEKLHVNSASEAVVKAIRQRL	-2.46
HMEIHQVEFGGKVISFVLERKPVKNVNLHIKPDMTVMVSANEKVPLDFILGFVKQKAAWILKNIQFFEDV	-1.25
HMDEFQLTPREQEILGLLVKGYTYKRIASELNLSYATVNRHVSNVYVKLRVHSVNEAVALAVRKGL	-0.997
HMGFDTVVEKVLGLITSRPMTSRDIQMTLGRSREHTSRLMNRLYKEGLVDRNTSSKPFSYIITEKGREKI	-0.0114
HMNNFTQSALDTIDGIGKRRKKLLLNHFGSVKLIENASIEDIKKIDGISDLVANKIYNFFNKN	-0.652
HMLAAAVVVYATDKVNVRAEASETADVIGQLEAGSQTTRLEDKDGWSRIDYSNGTQGYMKSEFLSTEAPT	-0.102
HMSNRFIQFRQRAIDWLNSDRDFNAGILLLEESGFKPGVVAKLKRHGVNGPEAKKRLKFLINELVKAWA	-0.0824
HMDVLKVFSHNVRRYRTQLGLSQETVAFRTGLHRTYISAVERGKRSISLDNIQKIADALEVETYLLFI	-1.72
HMTARYQQVEDYIVRRIQDGSWPPGHRLPSEHELVQQFGMSRMTVNRALRDLMQKGRIVRVAGVGSFVAQD	-1.41
HMLAEEAFNKQAATAGYVYRDGSYHPAASVAQYDAMPRNYRTNTMAQELSRSQVESQLQQSQ	0.436
HMGPVPLASAADMEKFYSHLQQVLDEVDFKDRTGSGHLMARLRRLFQRTVLDQNEINILRGILMAVQGRR	-2.85
HMKQYSFEISKADFKKISENFNFKIINEINDSLIISLNDKNINLDELLIFFVERKIKVRSIENI	-0.986
HMDYPFQYFNYSHLRILGVPAQLIKAVRKAPTLDAIEQLSGLSEKTKLWLLELATEPKLEDVLFDPGR	-1.44
HMATSNDTQITGSLALRFDGSGDTFTVNVNGDDKLEINTEGTVIYKPLTTAPTYVSGGLFFSSSGDFYVG	-0.0386
HMLRPMVAILNKNISKGQVISEDYIKFEVRPERQIHGAYHDISEVLGRKTKNNIAAGTILKVRHLDT	-0.201
HMLSKEERRSQLLDLGVRLLSTRSLDELSIDLLAEEAGISRGLLYHYFGNKHDFHEAVVRRAADDLI	-1.75
HMKDITMPNVYGLTLEMAEQTLKQSELSIFKAMKINSDTVEEGKVIYTDPKANSIVSGDQEITIYVSDGP	0.0645
